Here are results for three substances from patent publication US20120177636A1.

Assay [1] addresses CA215 on NaIO4-treated OC-3-VGH cancer cells (human). As to the kind of experiment: direct binding EIA on OC-3-VGH cell-coated wells, with NaIO4 treatment.
Assay [2] has as its target CA215 (human). As to the kind of experiment: direct binding EIA on OC-3-VGH cell-coated wells, without NaIO4 treatment.
Assay [3] concerns the target CA215 (human). As to the kind of experiment: sandwich EIA: antibody coated at 5 µg/ml, OC-3-VGH shed medium, HRP-labeled RP215 as detector; no human IgG.
In assay [4] the target is CA215 (human). As to the kind of experiment: sandwich EIA: antibody coated at 5 µg/ml, OC-3-VGH shed medium, HRP-labeled RP215 as detector; with 10 µg/ml human IgG.
Assay [5] addresses CA215 (human). As to the kind of experiment: two-step ELISA on OC-3-VGH cancer cells, goat anti-mouse IgG-ALP; OD over that of normal mouse IgG at the same concentration.
Assay [6] deals with CA215 (human). As to the kind of experiment: sandwich EIA: antibody coated at 5 µg/ml, OC-3-VGH shed medium, HRP-labeled RP215 as detector; no human IgG; relative to RP215.
Assay [7] concerns the target CA215 (human). As to the kind of experiment: sandwich EIA: antibody coated at 5 µg/ml, OC-3-VGH shed medium, HRP-labeled RP215 as detector; with 10 µg/ml human IgG; relative to RP215.
The target of assay [8] is RP215 monoclonal antibody. As to the kind of experiment: ELISA, RP215 coated in wells, goat antibody as detector; row normalised to RP215.
Sequence of RP215 monoclonal antibody (VH, as listed by the source, chain 1 of 2): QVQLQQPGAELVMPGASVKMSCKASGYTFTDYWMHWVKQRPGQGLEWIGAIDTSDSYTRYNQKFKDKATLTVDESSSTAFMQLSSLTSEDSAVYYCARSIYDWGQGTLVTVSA
Sequence of RP215 monoclonal antibody (VL, as listed by the source, chain 2 of 2): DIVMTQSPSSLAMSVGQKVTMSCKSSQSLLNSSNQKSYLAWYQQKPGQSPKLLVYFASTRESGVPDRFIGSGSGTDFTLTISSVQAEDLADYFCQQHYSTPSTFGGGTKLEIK
The target in the next assay is humanized RP215. As to the kind of experiment: ELISA, hRP215 coated in wells, goat antibody as detector; row normalised to RP215.
In the next assay the target is chimeric RP215 mAb. As to the kind of experiment: ELISA, chRP215 coated in wells, goat antibody as detector; row normalised to RP215.
Sequence of chimeric RP215 mAb (VH, as listed by the source, chain 1 of 2): as the sequence (VH, as listed by the source, chain 1 of 2) above
Sequence of chimeric RP215 mAb (VL, as listed by the source, chain 2 of 2): as the sequence (VL, as listed by the source, chain 2 of 2) above
The next assay addresses human IgG (human). As to the kind of experiment: ELISA, human IgG coated in wells, goat antibody as detector; row normalised to RP215.

As for RP215 monoclonal antibody, the Optical Density at 450 nm in assay [1] was 0.797; with CA215 (human) [2], 2.15. Also, the percent maximum binding in [1] worked out at 37%; with CA215 (human) [2] it was 100%. Further, the Relative Signal Intensity in Sandwich EIA with CA215 (human) [3] and with CA215 (human) [4] was 100% in each case. Besides, the ODs405/ODn405 with CA215 (human) [5] was 11.6.
chimeric RP215 mAb (antibody): the Relative Signal Intensity in Sandwich EIA in the assay with CA215 (human) [6] worked out at 14.5%; with CA215 (human) [7] it was 15.4%.
Turning to goat anti-mouse IgG (antibody), the Relative Intensity in assay [8] is 100%; with humanized RP215, 5%; with chimeric RP215 mAb it was 7%; in the assay with human IgG (human), 3%.
